Results from article PMC9181698.

B1: unnamed (parent)
chain 1: DKEWILQKIYEIMRLLDELGHAEASMRVSDLIYEF
chain 2: not shown

Variants of: B1
Settings: with partner chain of the complex shown; 12 nM peptide; read off a plot

Variant	screen value
chain 1 I5A	3%
chain 1 E23A	50%
chain 1 W4A	3.7%
chain 1 D1A	4.5%
chain 1 L15A	4.5%
chain 1 R14A	24%
chain 1 I32A	46%
chain 1 S25A	9%
chain 1 L6A	69%
chain 1 G20A	66%
chain 1 S29A	49%
chain 1 M13A	92%
chain 1 L31A	18%
chain 1 E34A	20%
chain 1 D17A	14%
chain 1 K8A	19%
chain 1 K2A	47%

Variant	screen value
chain 1 Y10A	18%
chain 1 E11A	26%
chain 1 L16A	23%
chain 1 Y33A	86%
chain 1 I9A	3%
chain 1 E3A	4.5%
chain 1 I12A	7%
chain 1 V28A	8.5%
chain 1 Q7A	19%
chain 1 H21A	31%
chain 1 F35A	23%
chain 1 L19A	1.7%
chain 1 R27A	3%
chain 1 E18A	1%
chain 1 M26A	67%
chain 1 D30A	96%
